Data from US20230220063A1, “IL-1BETA BINDING ANTIBODIES FOR USE IN TREATING CANCER” (NOVARTIS AG, priority 2017, published 2023).

How the values were obtained:
[1] = system: patients with a prior heart attack and inflammatory atherosclerosis; test: CANTOS primary endpoint: major adverse cardiovascular events (MACE); format: in vivo, human; conditions: in combination with standard of care
Text: The present invention arose, at least in part, from the analysis of the data generated from the CANTOS trial, which is a randomized, double-blind, placebo-controlled, event-driven trial. […] Participants were followed for incident cancer diagnoses over a median follow-up period of 3.7 years.
MACE is a composite of cardiovascular death, non-fatal myocardial infarction and non-fatal stroke.

[2] = system: post-myocardial infarction patients with elevated hsCRP
[3] = system: vasculature in trabecular bone; test: Blocking IL-1β signalling: blood vessels in the bone microenvironment of mice; format: in vivo
Method: Vasculature was visualised following CD34 and endomucin immunohistochemistry and the concentration of vascular endothelial growth factor (VEGF) and endothelin-1 in serum and/or bone marrow was determined by ELISA. Effects on bone volume were measured by Micro computed tomography (uCT).
Tumor cells, serum, and bone were subsequently resected for downstream analysis.

For “canakinumab: high-affinity, fully human monoclonal antibody of the IgG1/k to interleukin-1β; INN number 8836”, the “risk of major adverse cardiovascular events (MACE)” value [1] was “reduces the risk of major adverse cardiovascular events”, the “all-cause mortality, HR” value ([2]; canakinumab groups vs placebo) was 0.94 and the “non-cardiovascular mortality, HR” value ([2]; canakinumab groups vs placebo) was 0.97. For the same substance, the “Anemia (AE reports)” value ([2]; in vivo) was 275 (1.11), the “Erythrocytes (at 12 months): High (>6.8)” value ([2]; in vivo) was 4 (0.07) N (%) and the “Erythrocytes (at 12 months): Low (<3.3)” value ([2]; in vivo) was 19 ( 0.32) N (%). The “Erythrocytes (at 12 months): Normal (3.3-6.8)” value ([2]; in vivo) was 6002 (99.6) N (%), the “Leucocytes (at 12 months): High (>15,000)” value ([2]; in vivo) was 20 (0.33) N (%) and the “Leucocytes (at 12 months): Low (<3000)” value ([2]; in vivo) was 27 (0.45) N (%). The “Leucocytes (at 12 months): Normal (3000-<15000)” value ([2]; in vivo) was 5978 (99.2) N (%), the “Leukopenia (AE reports)” value ([2]; in vivo) was 100 (0.40) and the “Neutropenia (AE reports)” value ([2]; in vivo) was 25 (0.10). The “Neutrophils (at 12 months): Grade 1 (1500-<LLN)” value ([2]; in vivo) was 14 (0.24) N (%), the “Neutrophils (at 12 months): Grade 2 (1000-<1500)” value ([2]; in vivo) was 28 (0.47) N (%) and the “Neutrophils (at 12 months): Grade 3 (500-<1000)” value ([2]; in vivo) was 5 (0.08) N (%). For the same substance, the “Neutrophils (at 12 months): Grade 4 (<500)” value ([2]; in vivo) was 0 (0.00) N (%), the “Neutrophils (at 12 months): Normal N (%)” value ([2]; in vivo) was 5891 (99.2) N (%) and the “Platelets (at 12 months): Grade 1 (75,000-<LLN)” value ([2]; in vivo) was 782 (13.0) N (%). The “Platelets (at 12 months): Grade 2 (50,000-<75,000)” value ([2]; in vivo) was 10 (0.17) N (%), the “Platelets (at 12 months): Grade 3 (25,000-<50,000)” value ([2]; in vivo) was 4 (0.07) N (%) and the “Platelets (at 12 months): Grade 4 (<25,000)” value ([2]; in vivo) was 0 (0.00) N (%). The “Platelets (at 12 months): Normal N (%)” value ([2]; in vivo) was 5216 (86.8) N (%), the “Thrombocytopenia (AE reports)” value ([2]; in vivo) was 150 (0.60) and the Serious tuberculosis infections ([2]; similar rates in canakinumab and placebo treated groups) was 0.06%. The “length of new blood vessels” value ([3]; 24 hours Ilaris, control 0.09 mm) was 0.06 mm, the “endothelin 1 and VEGF in the bone marrow (ELISA)” value ([3]; compared with control) was “reduced concentrations” and the “reduction in VEGF concentration” value ([3]; mice treated for 96 hours) was 46%. For the same substance, the “reduction in endothelin-1 concentration” value ([3]; mice treated for 96 hours) was 47% and the “average length of CD34^+ blood vessels in trabecular bone” value ([3]; p < 0.01 vs control) was “reduced the average length of CD34^+ blood vessels”.
